# Source: patent publication US20210292396A1 (INTERNATIONAL AIDS VACCINE INITIATIVE, published 2021)
# B1: ePGT121.15.H1.L1 (antibody, V domains shown)
# VH: QMQLQESGPGLVKPGETLSLTCSVSGASISSSYWSWLRETPGKGLEWIGYTHHSGDTNYAPSLKSRVHLGLHPSKNQVSLSLTSVTAADTAVYYCARTLHGRRIYGVVAFNEWFTYFYWEVWGNGTQVTVSS
# VL: SDISVAPGETVRISCGGESIGSRAVQWYQHRAGQAPKLIIYNNQDRPPGIPERFSGSPDIDFGTTATLTITNVEAGDEATYYCHIWDSRRPTNWVFGGGTTLTVL
# Tests used:
# Experiment in all cases: cell-based or functional assay
# [1] = target: HIV Env of isolate Ce1172_H1 (HIV)
# [2] = target: HIV Env of isolate 0260.v5.c36 (HIV)
# [3] = target: HIV Env of isolate 3817.v2.c59 (HIV)
# [4] = target: HIV Env of isolate ZM247v1(Rev-) (HIV)
# [5] = target: HIV Env of isolate 6244_13_B5_4576 (HIV)
# [6] = target: HIV Env of isolate 1394C9G1(Rev-) (HIV)
# [7] = target: HIV Env of isolate A07412M1.vrc12 (HIV)
# [8] = target: HIV Env of isolate RHPA4259.7 (HIV)
# HIV Env of isolate CNE20 = HIV Env of isolate CNE20 (HIV)
# [9] = target: HIV Env of isolate CAAN5342.A2 (HIV)
# [10] = target: HIV Env of isolate SC422661.8 (HIV)
# [11] = target: HIV Env of isolate BJOX009000.02.4 (HIV)
# [12] = target: HIV Env of isolate TRJO4551.58 (HIV)
# [13] = target: HIV Env of isolate Du156.12 (HIV)
# [14] = target: HIV Env of isolate 3301.v1.c24 (HIV)
# [15] = target: HIV Env of isolate TRO.11 (HIV)
# [16] = target: HIV Env of isolate Q23.17 (HIV)
# [17] = target: HIV Env of isolate CAP210.2.00.E8 (HIV)
# [18] = target: HIV Env of isolate 6535.3 (HIV)
# [19] = target: HIV Env of isolate 246F_C1G (HIV)
# [20] = target: HIV Env of isolate 1054_07_TC4_1499 (HIV)
# [21] = target: HIV Env of isolate T211-9 (HIV)
# [22] = target: HIV Env of isolate CAP45.2.00.G3 (HIV)
# [23] = target: HIV Env of isolate HIV-001428-2.42 (HIV)
# [24] = target: HIV Env of isolate SC05_8C11_2344 (HIV)
# [25] = target: HIV Env of isolate WEAU_d15_410_5017 (HIV)
# HIV Env of isolate CNE17 = HIV Env of isolate CNE17 (HIV)
# HIV Env of isolate CNE53 = HIV Env of isolate CNE53 (HIV)
# [26] = target: HIV Env of isolate T250-4 (HIV)
# [27] = target: HIV Env of isolate ZM53M.PB12 (HIV)
# [28] = target: HIV Env of isolate 1006_11_C3_1601 (HIV)
# [29] = target: HIV Env of isolate Ce704809221_1B3 (HIV)
# [30] = target: HIV Env of isolate 3103.v3.c10 (HIV)
# [31] = target: HIV Env of isolate 928-28 (HIV)
# [32] = target: HIV Env of isolate ZM109F.PB4 (HIV)
# HIV Env of isolate CNE21 = HIV Env of isolate CNE21 (HIV)
# HIV Env of isolate PVO.4 = HIV Env of isolate PVO.4 (HIV)
# [33] = target: HIV Env of isolate 7030102001E5(Rev-) (HIV)
# [34] = target: HIV Env of isolate P0402_C2_11 (HIV)
# [35] = target: HIV Env of isolate 1056_10_TA11_1826 (HIV)
# [36] = target: HIV Env of isolate 6811.v7.c18 (HIV)
# HIV Env of isolate CNE58 = HIV Env of isolate CNE58 (HIV)
# [37] = target: HIV Env of isolate 6240_08_TA5_4622 (HIV)
# [38] = target: HIV Env of isolate AC10.0.29 (HIV)
# [39] = target: HIV Env of isolate X2088_c9 (HIV)
binder,measurement,setting,value
B1,neutralization (Table 6 value),[1],0.00075
same,neutralization (Table 6 value),[2],0.00247
same,neutralization (Table 6 value),[3],0.00495
same,neutralization (Table 6 value),[4],0.00158
same,neutralization (Table 6 value),[5],0.00697
same,neutralization (Table 6 value),[6],0.00403
same,neutralization (Table 6 value),[7],0.000964
same,neutralization (Table 6 value),[8],0.00233
same,neutralization (Table 6 value),HIV Env of isolate CNE20,0.000933
same,neutralization (Table 6 value),[9],0.00192
same,neutralization (Table 6 value),[10],0.00372
same,neutralization (Table 6 value),[11],0.0255
same,neutralization (Table 6 value),[12],0.00359
same,neutralization (Table 6 value),[13],0.00124
same,neutralization (Table 6 value),[14],0.00166
same,neutralization (Table 6 value),[15],0.00156
same,neutralization (Table 6 value),[16],0.00126
same,neutralization (Table 6 value),[17],0.0229
same,neutralization (Table 6 value),[18],0.00121
same,neutralization (Table 6 value),[19],0.00428
same,neutralization (Table 6 value),[20],0.00167
same,neutralization (Table 6 value),[21],0.00532
same,neutralization (Table 6 value),[22],3.06
same,neutralization (Table 6 value),[23],0.00153
same,neutralization (Table 6 value),[24],0.00762
same,neutralization (Table 6 value),[25],0.00209
same,neutralization (Table 6 value),HIV Env of isolate CNE17,0.0106
same,neutralization (Table 6 value),HIV Env of isolate CNE53,0.00288
same,neutralization (Table 6 value),[26],0.000854
same,neutralization (Table 6 value),[27],0.00206
same,neutralization (Table 6 value),[28],0.00195
same,neutralization (Table 6 value),[29],0.00162
same,neutralization (Table 6 value),[30],0.00509
same,neutralization (Table 6 value),[31],0.0868
same,neutralization (Table 6 value),[32],2.15
same,neutralization (Table 6 value),HIV Env of isolate CNE21,0.000929
same,neutralization (Table 6 value),HIV Env of isolate PVO.4,0.0044
same,neutralization (Table 6 value),[33],0.00261
same,neutralization (Table 6 value),[34],0.00268
same,neutralization (Table 6 value),[35],0.00391
same,neutralization (Table 6 value),[36],0.00109
same,neutralization (Table 6 value),HIV Env of isolate CNE58,0.00795
same,neutralization (Table 6 value),[37],0.0052
same,neutralization (Table 6 value),[38],0.00272
same,neutralization (Table 6 value),[39],0.00147
